The source of these data is US20200407442A1 (WUXI BIOLOGICS IRELAND, published 2020).

In assay [1] the target is T1, mFc-tagged LAG-3 protein (human, UniProt P18627 30-450).
T1 construct: also called human LAG-3 ECD with mouse Fc tag
T1 sequence: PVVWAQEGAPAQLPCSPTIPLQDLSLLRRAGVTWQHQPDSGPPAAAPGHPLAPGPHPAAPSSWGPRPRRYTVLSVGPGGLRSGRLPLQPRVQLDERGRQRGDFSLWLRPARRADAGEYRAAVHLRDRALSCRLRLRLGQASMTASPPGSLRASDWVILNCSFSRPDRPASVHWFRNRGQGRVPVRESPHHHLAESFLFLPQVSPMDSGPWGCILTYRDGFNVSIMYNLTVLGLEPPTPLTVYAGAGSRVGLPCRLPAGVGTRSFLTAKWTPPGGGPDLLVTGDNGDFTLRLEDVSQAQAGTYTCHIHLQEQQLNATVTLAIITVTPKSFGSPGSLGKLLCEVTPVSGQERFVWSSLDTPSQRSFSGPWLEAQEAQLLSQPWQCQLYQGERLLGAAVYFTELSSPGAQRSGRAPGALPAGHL
As to the kind of experiment: ELISA competition: blocks mFc-tagged LAG-3 binding to coated LSECtin. How it is done:
(§1) 96-well plates were coated with human LSECtin or Galectin-3 at 0.5 μg/mL overnight at 4° C., respectively. Antibodies were serially diluted in 1% BSA-PBS and mixed with mFc-tagged LAG-3 protein. After blocking and washing, the mixture was transferred to the plates and incubated at room temperature for 1 h. The plates were then washed and subsequently incubated with corresponding secondary antibody for 60 min. After washing, TMB substrate was added and the color reaction was stopped by 2M HCl. The absorbance at 450 nm was read using a microplate reader.

Assay [2] deals with T2, full-length human LAG-3 on cells (human, UniProt P18627 23-525).
T2 construct: Expressed on Flp-In-293, CHO or 293F transfectants; also called hPro1.FL; cell surface human LAG-3
T2 sequence: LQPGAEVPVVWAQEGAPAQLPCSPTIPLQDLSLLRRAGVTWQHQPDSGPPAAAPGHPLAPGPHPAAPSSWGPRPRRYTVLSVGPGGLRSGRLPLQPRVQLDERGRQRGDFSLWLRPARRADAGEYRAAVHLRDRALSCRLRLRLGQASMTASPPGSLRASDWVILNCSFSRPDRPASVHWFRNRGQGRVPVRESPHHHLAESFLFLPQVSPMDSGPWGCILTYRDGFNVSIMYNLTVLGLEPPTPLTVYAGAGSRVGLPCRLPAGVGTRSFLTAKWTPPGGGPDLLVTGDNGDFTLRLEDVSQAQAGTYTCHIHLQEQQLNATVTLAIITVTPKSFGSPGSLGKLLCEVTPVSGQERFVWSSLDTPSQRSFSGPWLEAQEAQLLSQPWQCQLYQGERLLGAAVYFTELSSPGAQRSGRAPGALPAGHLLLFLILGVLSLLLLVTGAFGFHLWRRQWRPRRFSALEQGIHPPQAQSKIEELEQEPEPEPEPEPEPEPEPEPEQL
As to the kind of experiment: FACS affinity on Flp-In-293 cells expressing human LAG-3. How it is done: Antibody binding affinity to cell surface LAG-3 was measured by FACS analysis. Flp-In-293 cells expressing human LAG-3 were transferred in to 96-well U-bottom plates at a density of 5×10⁵ cells/mL. Tested antibodies were serially diluted in wash buffer (1×PBS/1%BSA) and incubated with cells at 4° C. for 1 h. The secondary antibody goat anti-human IgG Fc FITC (3.5 moles FITC per mole IgG) was added and incubated at 4° C. in the dark for 0.5 h. The cells were then washed once and resuspended in 1×PBS/1%BSA, and analyzed by flow cytometry. Fluorescence intensity will be converted to bound molecules/cell based on the quantitative beads (QuantumTM MESF Kits, Bangs Laboratories, Inc.). Affinity was calculated using Graphpad Prism 5.

Assay [3] has as its target T2, full-length human LAG-3 on cells. As to the kind of experiment: FACS on human LAG-3 transfectant cells. How it is done:
Various concentrations of testing antibodies, positive and negative controls were added to human LAG-3 transfectant cells, and then the binding of antibodies onto the surface of the cells was detected by corresponding PE-labeled secondary antibodies.

The target of assay [4] is T1, mFc-tagged LAG-3 protein. As to the kind of experiment: ELISA competition: blocks mFc-tagged LAG-3 binding to coated Galectin-3. How it is done:
as §1
A general note: An ELISA detects its analyte on a solid surface through an enzyme-linked reagent.

The target of assay [5] is T1, mFc-tagged LAG-3 protein. As to the kind of experiment: FACS competition: blocks mFc-tagged LAG-3 binding to MHC-II on Raji cells. How it is done:
Antibodies were serially diluted in 1% BSA-PBS and incubated with mFc-tagged LAG-3 protein at 4° C. for 30 min. The mixture was transferred into the 96-well plates seeded with Raji cells. Goat anti-mouse IgG Fc-PE antibody was used to detect the binding of LAG-3 protein to Raji cells. The MFI was evaluated by flow cytometry and analyzed by the software FlowJo (version 7.6.1).

Assay [6] concerns the target T2, full-length human LAG-3 on cells. As to the kind of experiment: cell-based or functional assay.
In assay [7] the target is T3, human LAG-3-ECD.D12.mFc mutant E146A (human, UniProt P18627 37-252).
T3 construct: Alanine scanning mutant; construct limits as for m26
T3 chain: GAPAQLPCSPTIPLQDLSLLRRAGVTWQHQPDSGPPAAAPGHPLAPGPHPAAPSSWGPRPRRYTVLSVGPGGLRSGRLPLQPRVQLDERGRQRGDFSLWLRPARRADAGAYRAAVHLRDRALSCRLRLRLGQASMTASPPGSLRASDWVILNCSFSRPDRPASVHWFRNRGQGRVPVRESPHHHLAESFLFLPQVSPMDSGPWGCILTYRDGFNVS
The experiment in a line: ELISA, antibody coated, LAG-3 D12.mFc mutant in supernatant, normalised to control mutants. The method, then: For ELISA binding assay, the antibody 1.53.3-uAb-IgG4k or 3.40.19-uAb-hIgG4L (2 μg/mL) was coated in plates. After interacting with the supernatant that contains quantified LAG-3 mutants or human LAG-3-ECD.D12.mFc protein, HRP conjugated anti-mFc antibody (1:5000; Bethyl, USA) was added as a detection antibody. Absorbance was normalized according to the average absorbance of control mutants. After setting an additional cutoff to the binding fold change (<0.75), the final determined epitope residues were identified.

B1: 3.40.19-uAb-IgG4L (antibody, V domains shown)
VH: QLQLQESGPGLVKPSETLSLTCTVSGDSISSTSYYWGWIRQPPGKGLEWIGSFYYSGSTYYNPSLKSRVTISVDTSKNQFSLKLNSVTAADTAVYYCARMQLWSYDVDVWGQGTTVTVSS
VL: QSALTQPASVSGSPGQSITISCTGTSSDVGGYDYVAWYQQHPGKVPKLMIYDVSERPSGVSNRFSGSKSGNTASLTISGLQAEDEADYYCSSYTSTTTLVVFGGGTKLSVL
notes: Fully human antibody from OMT rats; IgG4 lambda by its name; also called 3.40.19-uAb-hIgG4L
What is called EC50 is the concentration that produces a half-maximal response. As a reminder, the Kd is the free concentration of one partner at which half of the binding sites on the other are occupied at equilibrium, for simple one-to-one binding. Higher therefore signals a looser complex. As for B1, the EC50 turned out to be 0.51 nM in assay [1], 0.13 nM in assay [3], 0.56 nM in assay [4] and 0.67 nM in assay [5]. The molecule also showed a Kd in assay [2] of 0.053 nM. For the same molecule, the “EC50, IL-2 luciferase reporter gene assay (Jurkat cells expressing human LAG-3 with Raji cells and SEE)” value in assay [6] was found to be 0.21 nM. Besides, the “Fold Change” value in assay [7] was 0.582.

B2: 1.53.3-uAb-IgG4k (antibody, V domains shown)
VH: QVQLQQWGAGLLKPSETLSLTCGVYGGSFSGYYWSWIRQPPGMGLEWIGEINHRGNTNYNPSLKSRVTISEDTSKNQFSLRLSSVTAADTAVYFCTRGEDYSDYDYYGDFWGQGTLVTVSS
VL: EIVLTQSPATLSLSQGERATLSCRASQSISSYLAWYQQKPGQAPRLLIYAASNRATGIPARFSGSGSGTDFTLTISSLEPEDFAIYYCQQRSNWPLTFGGGTKVEIK
notes: Fully human antibody from OMT rats; IgG4 kappa by its name
Turning to B2, the EC50 in assay [1] came out at 0.71 nM; in assay [3] it was 0.43 nM; in assay [4], 0.74 nM; in assay [5], 0.8 nM. For the same molecule, binding in assay [2] was characterised by a dissociation constant (Kd) of 0.16 nM. Also, in assay [6], the “EC50, IL-2 luciferase reporter gene assay (Jurkat cells expressing human LAG-3 with Raji cells and SEE)” value came to 1.07 nM. For the same molecule, in assay [7], the “Fold Change” value is 0.701.
